This passage reports Kd results from article PMC2770460.

In the experiment the target is recombinant full-length mammalian Tpr (6xHis-Tpr) (not stated (mammalian)) (UniProt P12270). Description: ELISA; solid phase binding assay: Maxisorp microtiter plates coated with 25 ng of Tpr or C-Tpr; increasing concentrations of the soluble protein; bound protein detected with primary antibodies and horseradish peroxidase-conjugated secondary antibodies (TMB); apparent Kd from B = Bmax x Y/(Kd + Y); CRM1, NES and RanGTP at equimolar concentrations.
recombinant full-length mammalian Tpr (6xHis-Tpr) (not stated (mammalian)), sequence (P12270 whole entry): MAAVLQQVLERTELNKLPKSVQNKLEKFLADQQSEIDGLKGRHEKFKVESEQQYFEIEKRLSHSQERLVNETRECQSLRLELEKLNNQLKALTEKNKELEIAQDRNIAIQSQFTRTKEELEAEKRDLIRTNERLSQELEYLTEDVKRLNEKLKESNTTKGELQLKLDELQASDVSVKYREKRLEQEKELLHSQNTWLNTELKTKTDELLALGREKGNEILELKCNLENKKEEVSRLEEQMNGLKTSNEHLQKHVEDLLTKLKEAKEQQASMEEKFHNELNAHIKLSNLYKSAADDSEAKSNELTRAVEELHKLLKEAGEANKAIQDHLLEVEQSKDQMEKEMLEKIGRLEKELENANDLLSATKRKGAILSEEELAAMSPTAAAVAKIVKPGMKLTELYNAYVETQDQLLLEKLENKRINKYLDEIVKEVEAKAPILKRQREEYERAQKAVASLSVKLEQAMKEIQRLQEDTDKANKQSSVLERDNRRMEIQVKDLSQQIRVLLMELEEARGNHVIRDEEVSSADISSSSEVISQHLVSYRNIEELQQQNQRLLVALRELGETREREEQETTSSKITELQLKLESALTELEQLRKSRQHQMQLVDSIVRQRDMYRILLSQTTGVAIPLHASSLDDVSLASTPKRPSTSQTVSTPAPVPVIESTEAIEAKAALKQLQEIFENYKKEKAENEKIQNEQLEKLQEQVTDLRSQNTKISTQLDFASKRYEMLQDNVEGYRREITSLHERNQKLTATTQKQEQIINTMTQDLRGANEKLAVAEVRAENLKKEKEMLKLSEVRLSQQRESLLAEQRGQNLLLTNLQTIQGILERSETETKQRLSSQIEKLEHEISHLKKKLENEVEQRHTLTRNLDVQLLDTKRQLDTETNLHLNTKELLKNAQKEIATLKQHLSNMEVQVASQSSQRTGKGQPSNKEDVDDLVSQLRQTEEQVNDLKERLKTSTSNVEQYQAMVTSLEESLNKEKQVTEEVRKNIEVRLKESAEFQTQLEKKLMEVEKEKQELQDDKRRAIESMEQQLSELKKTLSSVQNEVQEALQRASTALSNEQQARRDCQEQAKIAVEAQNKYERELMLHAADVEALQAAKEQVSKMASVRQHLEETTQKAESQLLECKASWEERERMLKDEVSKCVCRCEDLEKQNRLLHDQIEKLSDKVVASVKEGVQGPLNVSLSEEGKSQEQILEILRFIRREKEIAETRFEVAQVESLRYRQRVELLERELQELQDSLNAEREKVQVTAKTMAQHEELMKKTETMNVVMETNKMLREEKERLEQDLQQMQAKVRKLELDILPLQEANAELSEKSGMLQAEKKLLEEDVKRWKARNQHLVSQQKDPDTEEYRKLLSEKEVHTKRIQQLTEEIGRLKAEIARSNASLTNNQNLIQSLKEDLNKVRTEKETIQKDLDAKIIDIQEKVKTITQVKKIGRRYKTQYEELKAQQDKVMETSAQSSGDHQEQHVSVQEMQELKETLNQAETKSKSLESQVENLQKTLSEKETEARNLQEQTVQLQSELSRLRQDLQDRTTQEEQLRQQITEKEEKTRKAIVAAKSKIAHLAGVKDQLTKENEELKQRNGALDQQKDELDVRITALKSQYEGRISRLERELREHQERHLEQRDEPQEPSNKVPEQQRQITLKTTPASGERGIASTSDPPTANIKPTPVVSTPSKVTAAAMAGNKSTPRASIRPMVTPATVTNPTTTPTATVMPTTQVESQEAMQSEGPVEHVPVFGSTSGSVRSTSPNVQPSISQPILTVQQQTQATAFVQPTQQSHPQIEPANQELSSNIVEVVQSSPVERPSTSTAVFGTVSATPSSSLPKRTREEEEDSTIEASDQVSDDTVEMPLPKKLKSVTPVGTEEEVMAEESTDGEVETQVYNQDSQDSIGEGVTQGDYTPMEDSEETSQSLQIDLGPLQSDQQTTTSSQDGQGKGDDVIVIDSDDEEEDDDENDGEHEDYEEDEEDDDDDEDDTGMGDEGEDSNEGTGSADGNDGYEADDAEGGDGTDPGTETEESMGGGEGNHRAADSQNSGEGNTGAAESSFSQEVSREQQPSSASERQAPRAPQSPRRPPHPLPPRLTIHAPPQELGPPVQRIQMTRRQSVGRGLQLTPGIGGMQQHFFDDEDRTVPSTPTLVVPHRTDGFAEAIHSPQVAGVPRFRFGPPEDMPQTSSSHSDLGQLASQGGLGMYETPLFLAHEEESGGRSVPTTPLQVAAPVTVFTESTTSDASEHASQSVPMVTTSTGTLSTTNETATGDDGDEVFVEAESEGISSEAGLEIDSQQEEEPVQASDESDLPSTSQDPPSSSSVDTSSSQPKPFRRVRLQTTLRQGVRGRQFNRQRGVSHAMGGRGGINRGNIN

As to “His-importin α (from UniProt P52292 1-529) (natural protein)”, the Kd worked out at 0.0215 µM.
